The values below are quoted from earlier work in article PMC2562372.

Targets include NRP1 (Homo sapiens) (UniProt O14786); VEGFR1 (Homo sapiens) (UniProt P17948); VEGFR2 (Homo sapiens) (UniProt P35968).
UniProt P17948, sequence (P17948 27-1338): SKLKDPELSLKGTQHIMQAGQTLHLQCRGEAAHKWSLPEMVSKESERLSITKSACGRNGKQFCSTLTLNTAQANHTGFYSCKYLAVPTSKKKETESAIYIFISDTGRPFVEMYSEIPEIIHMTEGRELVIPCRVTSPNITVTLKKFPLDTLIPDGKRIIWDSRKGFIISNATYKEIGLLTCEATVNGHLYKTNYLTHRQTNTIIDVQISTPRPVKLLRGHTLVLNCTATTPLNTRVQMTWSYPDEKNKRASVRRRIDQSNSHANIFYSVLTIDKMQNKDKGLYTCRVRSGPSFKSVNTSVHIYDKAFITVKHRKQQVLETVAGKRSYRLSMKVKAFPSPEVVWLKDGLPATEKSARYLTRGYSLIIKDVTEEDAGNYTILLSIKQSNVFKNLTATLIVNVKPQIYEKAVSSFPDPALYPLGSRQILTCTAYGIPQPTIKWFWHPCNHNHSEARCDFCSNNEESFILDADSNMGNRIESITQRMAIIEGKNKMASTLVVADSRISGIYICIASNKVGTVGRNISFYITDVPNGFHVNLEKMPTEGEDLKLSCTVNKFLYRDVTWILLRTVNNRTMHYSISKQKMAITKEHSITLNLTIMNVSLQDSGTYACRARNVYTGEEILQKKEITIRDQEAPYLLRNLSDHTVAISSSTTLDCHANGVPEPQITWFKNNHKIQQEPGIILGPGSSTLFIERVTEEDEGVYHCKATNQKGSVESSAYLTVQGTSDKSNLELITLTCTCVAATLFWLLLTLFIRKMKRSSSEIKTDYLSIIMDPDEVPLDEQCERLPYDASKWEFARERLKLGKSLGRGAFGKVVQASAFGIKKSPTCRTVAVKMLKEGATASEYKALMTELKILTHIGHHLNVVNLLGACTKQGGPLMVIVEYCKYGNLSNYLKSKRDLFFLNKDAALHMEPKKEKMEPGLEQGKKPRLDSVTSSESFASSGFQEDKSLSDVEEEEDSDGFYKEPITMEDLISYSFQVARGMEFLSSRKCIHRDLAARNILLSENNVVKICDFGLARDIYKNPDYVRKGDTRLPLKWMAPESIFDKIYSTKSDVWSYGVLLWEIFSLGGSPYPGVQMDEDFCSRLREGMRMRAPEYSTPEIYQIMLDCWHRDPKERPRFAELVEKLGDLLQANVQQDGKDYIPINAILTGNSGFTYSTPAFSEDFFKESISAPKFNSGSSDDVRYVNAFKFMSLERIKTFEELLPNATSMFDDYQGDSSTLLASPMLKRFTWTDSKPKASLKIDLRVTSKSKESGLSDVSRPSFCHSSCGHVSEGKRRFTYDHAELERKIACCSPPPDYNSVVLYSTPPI
UniProt O14786, sequence (O14786 22-923): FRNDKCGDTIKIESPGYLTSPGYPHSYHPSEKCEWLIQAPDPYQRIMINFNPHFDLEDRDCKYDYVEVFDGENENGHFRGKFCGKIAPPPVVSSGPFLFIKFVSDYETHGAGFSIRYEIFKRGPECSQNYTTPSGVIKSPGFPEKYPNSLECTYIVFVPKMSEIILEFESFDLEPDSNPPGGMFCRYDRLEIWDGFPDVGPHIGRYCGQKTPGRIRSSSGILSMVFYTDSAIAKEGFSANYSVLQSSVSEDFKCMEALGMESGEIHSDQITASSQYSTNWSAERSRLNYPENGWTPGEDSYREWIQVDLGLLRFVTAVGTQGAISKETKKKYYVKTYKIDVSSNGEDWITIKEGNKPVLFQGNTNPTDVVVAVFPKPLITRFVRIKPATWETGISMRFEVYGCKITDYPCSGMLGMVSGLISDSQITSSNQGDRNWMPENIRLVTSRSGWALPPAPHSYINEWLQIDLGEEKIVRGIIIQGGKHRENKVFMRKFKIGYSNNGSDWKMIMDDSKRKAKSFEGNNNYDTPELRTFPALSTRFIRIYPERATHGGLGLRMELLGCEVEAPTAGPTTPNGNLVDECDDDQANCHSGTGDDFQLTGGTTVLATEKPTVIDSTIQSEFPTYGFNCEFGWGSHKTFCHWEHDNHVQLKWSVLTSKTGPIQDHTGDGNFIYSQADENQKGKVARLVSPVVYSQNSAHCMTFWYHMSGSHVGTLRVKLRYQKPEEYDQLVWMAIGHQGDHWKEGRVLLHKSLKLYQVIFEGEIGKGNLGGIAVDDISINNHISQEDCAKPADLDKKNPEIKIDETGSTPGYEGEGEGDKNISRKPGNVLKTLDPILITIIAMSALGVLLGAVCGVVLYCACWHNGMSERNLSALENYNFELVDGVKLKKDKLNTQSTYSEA
UniProt P35968, sequence (P35968 20-1356): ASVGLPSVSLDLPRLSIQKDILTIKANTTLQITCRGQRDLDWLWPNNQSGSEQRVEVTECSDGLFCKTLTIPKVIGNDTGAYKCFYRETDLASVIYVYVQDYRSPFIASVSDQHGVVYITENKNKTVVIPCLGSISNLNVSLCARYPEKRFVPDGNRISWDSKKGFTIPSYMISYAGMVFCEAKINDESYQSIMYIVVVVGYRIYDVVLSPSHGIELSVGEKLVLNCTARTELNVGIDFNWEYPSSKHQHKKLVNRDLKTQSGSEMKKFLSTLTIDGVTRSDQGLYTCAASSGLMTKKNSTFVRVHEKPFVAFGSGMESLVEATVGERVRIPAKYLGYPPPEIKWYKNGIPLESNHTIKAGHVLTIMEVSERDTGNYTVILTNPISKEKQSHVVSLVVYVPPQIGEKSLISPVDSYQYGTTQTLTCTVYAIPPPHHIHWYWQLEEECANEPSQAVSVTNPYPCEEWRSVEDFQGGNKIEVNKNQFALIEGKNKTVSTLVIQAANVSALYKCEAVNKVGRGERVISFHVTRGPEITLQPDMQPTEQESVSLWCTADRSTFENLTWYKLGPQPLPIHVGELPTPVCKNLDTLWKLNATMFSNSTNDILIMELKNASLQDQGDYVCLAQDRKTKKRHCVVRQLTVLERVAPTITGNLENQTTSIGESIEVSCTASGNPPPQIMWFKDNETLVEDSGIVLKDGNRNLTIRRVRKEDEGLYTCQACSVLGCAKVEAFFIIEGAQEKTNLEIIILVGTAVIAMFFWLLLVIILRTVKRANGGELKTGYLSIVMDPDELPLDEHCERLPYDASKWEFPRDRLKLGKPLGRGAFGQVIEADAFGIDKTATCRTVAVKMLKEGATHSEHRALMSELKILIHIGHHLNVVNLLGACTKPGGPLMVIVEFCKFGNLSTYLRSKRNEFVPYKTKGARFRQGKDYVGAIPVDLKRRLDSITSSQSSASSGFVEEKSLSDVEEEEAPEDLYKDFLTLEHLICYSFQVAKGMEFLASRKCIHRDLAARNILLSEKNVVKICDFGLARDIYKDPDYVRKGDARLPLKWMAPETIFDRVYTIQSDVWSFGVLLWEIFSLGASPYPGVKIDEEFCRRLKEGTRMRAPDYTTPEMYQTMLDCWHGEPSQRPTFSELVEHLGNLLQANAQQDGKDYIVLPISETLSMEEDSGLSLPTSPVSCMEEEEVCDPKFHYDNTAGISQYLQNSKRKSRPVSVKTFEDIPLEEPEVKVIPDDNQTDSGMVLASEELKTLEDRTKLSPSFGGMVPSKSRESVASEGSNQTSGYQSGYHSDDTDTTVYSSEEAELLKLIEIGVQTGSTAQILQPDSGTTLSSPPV

As for VEGF165 (from UniProt P15692), the Kd – broadly, a measure of binding affinity in units of concentration – in the series with NRP1 (Homo sapiens) was 0.312 nM.

As for VEGF (from UniProt P15692), the results for the Kd with VEGFR1 (Homo sapiens) and with VEGFR2 (Homo sapiens) were 0.033 nM and 0.1 nM, respectively.
